According to the supplement of paper PMC9170038:

System: MS2 coat protein
Test: apparent KD of MS2 coat protein; higher = weaker reporter binding
Details: Eterna round: R107
Method in brief: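 Apparent KD per design is the median of normalised cluster binding-curve fits. Designed RNA switches transcribed on-chip from Illumina sequencing clusters were titrated with SNAP-549-labelled MS2 coat protein in twofold steps from 0.7 or 1.5 nM to 3 µM, with 0.8–1.5 h down to 10–20 min per step. Buffer: 100 mM Tris-HCl pH 7.5, 80 mM KCl, 4 mM MgCl2, without or with constant ligand.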

[1] = input ligand: theophylline 20 uM
[2] = input ligand: theophylline 2 mM
[3] = input ligand: tryptophan 2.4 mM

Row | Sequence | apparent KD of MS2 coat protein (input ligand: arginine 13.2 mM) [nM] | apparent KD of MS2 coat protein [1] [nM] | apparent KD of MS2 coat protein [2] [nM] | apparent KD of MS2 coat protein [3] [nM] | apparent KD of MS2 coat protein (input ligand: none) [nM]
1 | ACUGACUUUACGGCCGCCACUCAUUGGCACGUGUCAUGUCAACAUGAGGAUCACCCAUGUAUGAUGAGGACCGGGUAAGGGCUGC [theeternabot_exclusion_MS2_Trp_B_2] | 8.71 | 13 | 11 |  | 
2 | UGACAUUGCUCAGAUACCAGACAUGAGGAUCACCCAUGUACCAAGGUACGAAAAUAACAUGUCCCUUGGCAGCUGAGCAAUGUCU [First try 2 #MS2Left #Theo2] | 16.7 | 27.6 |  | 12.4 | 
3 | UGACGAUACCUGGAUACCAGCGACAUGAGGAUCACCCAUGUAUGAGGAUCAGCCAUGAUAUGCCCUUGGCAGCCACGAAAGUCUU [VUVMULLIN] | 16.8 | 27.5 | 150 | 18.6 | 15.8
4 | UAUUUUGUGAUGGAUACCAGCAGAGAAAACGUUUAUCCUAACAUGAGGAUCACCCAUGUAUGCCCUUGGCAGCUGUUGUGGGAUA [8.Q] | 24.9 | 42 |  | 29.9 | 
5 | AUAACUGUCAAGGAAGGUGAUCCAGCAGAUACCAGCUAGGAAACUAGCCCUUGGCAGCUGCAACAUGAGGAUCACCCAUGUAAUA [(T)'-(M)'-(T1)-(T2)-(M1)-(M2)_Design9] | 61 | 135 |  | 59.3 | 
6 | UUCACGGGCACGGCCGCCACUAACCAACAUGAGGAUCACCCAUGUGUAUUGGACGACCUCUUUGCUAGGACCGGGUGUAUGGUUC [theeternabot_exclusion_MS2_Trp_B_15] | 25.3 | 32.3 | 32.6 |  | 
7 | ACGGAUCGGAAACGAUCCGCGGCUAGGGUGCGAGGACCGGUACGGCCGCCACUCGGGUAACAUGAGGAUCACCCAUGUCUGAUUU [ETA NP+V+V2 #14] | 50.6 | 116 | 118 | 587 | 123
8 | UUCGUAUUGUCGGCCGCCACUGCAACAUGAGGAUCACCCAUGUAAGAAUGGUUGUAAAUAUAUUACAGGACCGGGACAAUAGUAA [JR_ExcTryptoB_Sub018] | 16 | 24.1 | 23.4 |  | 
9 | ACAUGAGGAUCACCCAUGUAAUGGCACGAUACCAGCUGAUCCCGUGGCCCUUGGCAGCGUCCGGUGUGGUCCGGCGGGUUGGACG [LLLMULLIN] | 14.5 | 22.6 | 34.5 | 17.4 | 14.5
10 | CAUAUUGUAACUGAUACCAGUGUACUGACAUGAGGAUCACCCAUGUUGGGUUUUGUUGUACACCCUUGGCAGCAGAAUCAAUAUG [AstrosExyTheB#4] | 45.6 | 74.2 |  | 60.4 | 
11 | ACUAGGCUCGGAAACGAGCCUAGGACAGAAGGAGCGUGGAUUAACACAGGUAGGUCGCUGACAUGAGGAUCACCCAUGUAUUAUU [SSAA #2] | 24.5 | 38.6 | 25.3 | 28.9 | 24.9
12 | GAGCGCAGUUUACAACAUACUAACACAGAUACCAGAAAUUUUAUGUUCCCUUGGCAGCUGACAACAUGAGGAUCACCCAUGUGCU [theeternabot_exclusion_MS2_Theo_A_27] | 17.5 | 21.2 |  | 15.7 | 
13 | UGUAACAUGAGGAUCACCCAUGUGAGUGAUACCAGAUUAGUAUUAGUCCCUUGGCAGCACGUUGGGCGAGUGUAUAGUCUAUGCG [Same State - Theophylline A (Freestyle 13)] | 90.9 | 162 |  |  | 
14 | AAUCGUAAGGCGGCCGCCACUACACAUGAGGAUCACCCAUGUCUCGCGGGCUUGCGUUGGGAUUGUAGGACCGGGCCAGUAAUAA [Exclusion - Tryptophan B (Freestyle 12)] | 19.3 | 37.9 | 23.5 | 21.3 | 26.4
15 | ACAUGAGGGCGAAGGAGCGCGAACAUGAGGAUCACCCAUGUCUAUAUCCGUCCGCAUGUAUCGCAGGUAGGUCGCGCUGUUACUU [#13 Exclusion - Arginine B] | 8.99 | 11.4 | 8.5 | 8.52 | 8.6
16 | ACGACGCAUAGUGAUACCAGUAGAACAUGAGGAUCACCCAUGUCUGUGACGCACAAACUCUGCCCUUGGCAGCACUAUGCGUCAG [SSTheo B #7] | 12 | 15.9 |  | 12.2 | 
17 | AGACAUGAGGAUCACCCAUGUAGUAUGGAUACCAGAUGUAGAUUAGUCCCUUGGCAGCUGUGCUGAAGUGAUGCAUUGCUCCUAG [#15 Exclusion-TheophyllineA] | 21.9 | 33.5 | 24.2 | 23.6 | 22.1
18 | AACGUGAACGUGGUAUACCCGUGUGCCGAAGGAGCGCCCGAAAGGGCAGGUAGGUCGCGGACGACAUGAGGAUCACCCAUGUUUG | 42 | 97.2 | 87.5 | 57.7 | 73.5
19 | CGGCCCUCACACGAGGAUCACCCGUGUGAUACCAGCCUGGAAACAGGCCCUUGGCAGCACAAGGUCAUCAAAGAUGACCAAGCCG [TheoAX 22 #SwitchBubble] | 9.52 | 18 | 31.8 | 12.6 | 11.9
20 | AAAAUAAAAUAAAAGGUGGAAAUAAGGCGGCGAGGACCGGUACGGCCGCCACUCGCGUACAUGAGGAUCACCCAUGUCUGAAAAU [Same State - Tryptophan A (Freestyle 1)] | 20.3 | 28.2 | 26.6 |  | 
21 | GUAGCGACGGCGGCCGCCACUCGCACGUGAGGGUAGACCAACCUUCACAUGAGGAUCACCCAUGUGAGGACCGGGCUGUCGCUAC [#15 Exclusion Tryptophan B] | 17 | 30.4 | 25.4 | 46.4 | 23.8
22 | CAUGCGGCUAGUGAGCGUGGUGAGUAAAGGCGAGGACCGGUACGGCCGCCACUCGAGGCAAGACAUGAGGAUCACCCAUGUUGUA [theeternabot_exclusion_MS2_Trp_A_27] | 10.8 | 19.3 | 15.9 |  | 
23 | GGGUCCGUCGGAAGGAGCGACAUGAGGAUCACCCAUGUCUCCCGUUAUGGGAGUUCUUUAGGUCAGGUAGGUCGCCGGCGGGUCC [#1 Exclusion - Arginine B Attempt #13 (Inspired by Omei)] | 65 | 196 | 164 | 119 | 141
24 | UAAUGUGAGAGAAGGAGCGGAGGUCUCGUUACAACAUGAGGAUCACCCAUGUAACGUACCGUCCAGGUAGGUCGCUCUCGGGCGC [lvacmullin] | 17.4 | 24.4 | 17.2 | 15.2 | 13.2
25 | CGGACAUGAGGAUCACCCAUGUACACUGAAGGAGCGUCGAGAACGACAGGUAGGUCGCAGGUUGAGGAAGGUGAUGCUCAAGAAG [Exclusion Arginine A GF4] | 25.1 | 71.9 | 57.4 | 50.6 | 44.7
26 | UAAAACAUGAGGAUCACCCAUGUAAUUGAUACCAGAGUGAUGAUCCUCCCUUGGCAGCAAAACGCUGAUUGGAAACAAUCAGCGA [Mat - Same State Theophlline A - Mod of Eli - D25] | 50.1 | 102 |  | 46.8 | 
27 | AUCGUACCUGAUGAUACCAGCAAGUGAUCAUAACAUGAGGAUCACCCAUGUAAUCAGUGAUGCCCUUGGCAGCAUAGUCGAUACA [Same State - Theophylline B (Freestyle 5)] | 77.8 | 199 |  | 166 | 
28 | UUUGAUAGGACAGAUACCAGCGUGUUGUUGAACAUGAGGAUCACCCAUGUAGUGAUCAAGCGCCCUUGGCAGCUGGUUUGUUAGG [7.M] | 95.5 | 240 |  | 302 | 
